Test results reported in paper PMC2688778 (Structure (London, England : 1993), 2009).

Columns and labels:
Assay in all cases: fluorescence anisotropy
lambda exonuclease = biological target: T1, lambda exonuclease (bacteriophage lambda, UniProt P03697 1-226)
T1 sequence: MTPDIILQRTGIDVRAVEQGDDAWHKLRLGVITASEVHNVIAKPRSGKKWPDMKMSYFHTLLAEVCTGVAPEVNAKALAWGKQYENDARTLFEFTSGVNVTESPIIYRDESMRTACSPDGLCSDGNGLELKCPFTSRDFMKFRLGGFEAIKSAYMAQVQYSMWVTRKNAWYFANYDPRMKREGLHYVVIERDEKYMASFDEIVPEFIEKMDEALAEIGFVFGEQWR

RecE564 K704A = biological target: T2, RecE564 K704A (Escherichia coli K12, UniProt P15032 564-866, K704A)
T2 sequence: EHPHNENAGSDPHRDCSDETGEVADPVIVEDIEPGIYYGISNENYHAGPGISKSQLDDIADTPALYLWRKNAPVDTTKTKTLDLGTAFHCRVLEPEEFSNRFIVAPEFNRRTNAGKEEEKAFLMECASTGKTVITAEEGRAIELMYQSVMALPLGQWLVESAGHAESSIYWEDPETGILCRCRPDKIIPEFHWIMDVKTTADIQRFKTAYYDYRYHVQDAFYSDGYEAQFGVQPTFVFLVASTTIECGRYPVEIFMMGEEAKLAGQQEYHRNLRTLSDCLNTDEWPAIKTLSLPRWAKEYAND

RecE564 R744A = biological target: T3, RecE564 R744A (Escherichia coli K12, UniProt P15032 564-866, R744A)
T3 sequence: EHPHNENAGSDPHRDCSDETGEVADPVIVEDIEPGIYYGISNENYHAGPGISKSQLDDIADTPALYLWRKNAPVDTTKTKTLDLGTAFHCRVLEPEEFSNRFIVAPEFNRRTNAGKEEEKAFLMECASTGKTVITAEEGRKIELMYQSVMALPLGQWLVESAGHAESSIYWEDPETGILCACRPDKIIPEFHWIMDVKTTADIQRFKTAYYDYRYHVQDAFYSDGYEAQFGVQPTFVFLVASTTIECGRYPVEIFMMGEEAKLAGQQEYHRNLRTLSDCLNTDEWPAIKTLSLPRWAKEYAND

RecE564 P669A = biological target: T4, RecE564 P669A (Escherichia coli K12, UniProt P15032 564-866, P669A)
T4 sequence: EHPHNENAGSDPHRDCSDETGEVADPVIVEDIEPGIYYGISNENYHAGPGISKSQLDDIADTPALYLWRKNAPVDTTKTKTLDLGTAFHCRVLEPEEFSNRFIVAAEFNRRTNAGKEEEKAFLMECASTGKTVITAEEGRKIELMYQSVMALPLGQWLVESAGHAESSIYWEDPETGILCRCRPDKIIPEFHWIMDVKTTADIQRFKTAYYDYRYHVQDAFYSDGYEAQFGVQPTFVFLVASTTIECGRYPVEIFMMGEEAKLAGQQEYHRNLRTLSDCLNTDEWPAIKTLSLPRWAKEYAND

RecE564 WT = biological target: T5, RecE564 WT (Escherichia coli K12, UniProt P15032 564-866)
T5 sequence: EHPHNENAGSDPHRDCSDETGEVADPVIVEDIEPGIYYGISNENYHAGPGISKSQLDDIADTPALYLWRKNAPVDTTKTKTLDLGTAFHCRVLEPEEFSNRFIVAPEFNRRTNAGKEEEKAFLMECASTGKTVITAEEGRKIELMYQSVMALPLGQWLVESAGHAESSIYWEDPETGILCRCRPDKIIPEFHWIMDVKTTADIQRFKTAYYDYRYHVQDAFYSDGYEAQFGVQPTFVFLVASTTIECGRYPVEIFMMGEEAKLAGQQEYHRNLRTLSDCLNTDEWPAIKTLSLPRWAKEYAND

RecE564 Y778A = biological target: T6, RecE564 Y778A (Escherichia coli K12, UniProt P15032 564-866, Y778A)
T6 sequence: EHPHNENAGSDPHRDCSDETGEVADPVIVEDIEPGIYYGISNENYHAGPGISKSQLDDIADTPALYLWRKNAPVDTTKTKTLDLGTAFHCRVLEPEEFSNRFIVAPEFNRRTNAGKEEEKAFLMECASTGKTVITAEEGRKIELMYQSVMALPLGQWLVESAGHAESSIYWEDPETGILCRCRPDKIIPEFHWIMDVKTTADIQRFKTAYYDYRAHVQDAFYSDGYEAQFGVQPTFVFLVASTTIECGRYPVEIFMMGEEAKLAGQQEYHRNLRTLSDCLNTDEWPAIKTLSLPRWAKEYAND

RecE564 del858-866 = biological target: T7, RecE564 del858-866 (Escherichia coli K12, UniProt P15032 564-857, del858-866)
T7 sequence: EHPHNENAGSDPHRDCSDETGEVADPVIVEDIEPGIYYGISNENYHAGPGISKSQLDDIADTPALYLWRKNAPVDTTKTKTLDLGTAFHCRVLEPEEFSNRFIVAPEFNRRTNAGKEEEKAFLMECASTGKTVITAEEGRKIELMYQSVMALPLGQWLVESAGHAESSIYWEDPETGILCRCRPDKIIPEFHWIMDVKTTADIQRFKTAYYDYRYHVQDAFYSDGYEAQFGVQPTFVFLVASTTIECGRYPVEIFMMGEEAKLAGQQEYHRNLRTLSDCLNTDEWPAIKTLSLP

B1: F25 (dsDNA)
DNA 1: TAGAGCTTAATTGCTGAATCTGGTG
DNA 2: CACCAGATTCAGCAATTAAGCTCTA
Kd (lambda exonuclease): 161 ± 2 nM
Kd (RecE564 K704A): 330 ± 50 nM
Kd (RecE564 R744A): 95 ± 8 nM
Kd (RecE564 P669A): 109 ± 8 nM
Kd (RecE564 WT): 70 ± 2 nM
Kd (RecE564 Y778A): 130 ± 20 nM
Kd (RecE564 del858-866): 660 ± 80 nM
